# From US20110070615A1 (published 2011)
# Molecular target: T1, hu IGF-1R(ECD)-C3-muIgG1Fc (human; mouse, Glycosylated. About 60% of the preparation is cleaved at RKRR (chain pos 708-711) into disulfide-linked alpha and beta chains, 40% is uncleaved. Dimer through receptor and Fc disulfides.)
# T1 construct: 60% of the purified protein was processed into α and β chains, 40% unprocessed; also called IGF-1R(ECD)-C3-muFc; IGF-1R-C3-muFc
# Experiment: phage Fab ELISA, IGF-1R-C3-mFc coated at 5 µg/ml, anti-M13-HRP
# Experimental: In 96-well 2-ml deep-well blocks, 480 μl/well 2×YT-CG broth was inoculated with 20 μl of overnight cultures of the individual clones, then incubated at 37° C., 300 rpm for 3 hours. To each well, 50 μl of 1:3 diluted M13KO7 helper phage were added to infect the cells. The block was incubated at 37° C. without shaking for 30 minutes, and then shaken gently for another 30 minutes at 150 rpm. The block was centrifuged at 3600 rpm for 20 minutes to pellet the infected cells. The cell pellet in each well was suspended into 480 μl of 2×YT-CK (2×YT broth containing 100 μg/ml carbenicillin and 40 μg/ml kanamycin), and incubated at 30° C. overnight for about 20 hours. The cell debris was separated by centrifugation at 3600 rpm for 20 minutes. The rescued phage supernatant was used in the phage ELISA to check for IGF-1R-specific, INSR-cross reactive, or mouse Fc binding of individual clones.
# Three sets of Nunc MaxiSorb Immunoplates were coated with 100 μ/well of IGF-1R-C3-mFc at 5 μg/ml, INSR-mFc at 5 μg/ml, or mouse IgG1 (catalog #010-0103, Rockland, Gilbertsville, Pa.) at 2 μg/ml in PBS, respectively, at 4° C. overnight. The coated plates were washed 3× with […] of PBS. The washed plates were blocked with 300 μl/well 2% MPBS at room temperature for one hour. Meanwhile, rescued phages of individual clones were pre-blocked by mixing 170 μof rescued phage with 170 μl of 4% MPBS. The blocked plates were washed 5× with 300 μl/well TBST (TBS: 10 mM Tris-HCl, pH 7.5, 1 mM EDTA, 150 mM NaCl; Tween-20. 0.1%). 100 μl/well of pre-blocked phage dilutions were distributed to each set of coated plate, which were incubated at room temperature on a rocker for 90 minutes. The plates were washed 5× with 300 μl/well TBST. 100 μl/well of anti-M13-HRP in 2% MPBS (1:3000 dilution, catalog number 27-9421-01, Amersham Pharmacia Biotech) were distributed, and plates were incubated at room temperature on rocker for one hour. The plates were washed 5× with 300 μl/well TBST. 100 μl/well of the substrate 1-Step™ ABTS (Pierce Biotechnology, Rockford, Ill., catalog number 37615) were added. Plates were incubated for one hour. OD₄₀₅ was measured for signal detection.
row,binding result,Binder
1,binds,"L20H20 (Fab, V domains shown) VH: QVQLQESGPGLVKPSGTLSLTCAVSGGSISSSNWWSWVRQPPGKGLEWIGEIYHSGSTNYNPSLKSRVTISVDKSKNQFSLKLSSVTAADTAVYYCARSSSWYWNAFDIWGQGTMVTVSS VL: not shown"
2,binds,"L18H18 (Fab, V domains shown) VH: QVQLVESGGGVVRPGGSLRLSCAASGFTFSSYAMSWVRQAPGKGLEWVSTISGSGGSTYYADSVKGRFTISRDNSKNTLYLQMNSLRAEDTAVYYCAKERGSGWSLDNMDVWGQGTTVTVSS VL: DIQLTQSPSSVSASVGDRVTITCRASQGISRWLAWYQQKPGKAPRLLIYAASGLQSGVPSRFSGSGSGTDFTLTISNLQPEDFATYYCQQASSFPITFGQGTRLETK"
3,binds,"L16H16 (Fab, V domains shown) VH: QVQLQESGPGLVKPSGTLSLTCAVSGGSISSSNWWSWVRQPPGKGLEWIGEIYHSGSTNYNPSLKSRVTISVDKSKNQFSLKLSSVTAADTAVYYCARWTGRTDAFDIWGQGTMVTVSS VL: not shown"
4,binds,"L19H19 (Fab, V domains shown) VH: QVQLVESGPGLVKPSGTLSLTCAVSGGSISSSNWWSWVRQPPGKGLEWIGEIYHSGSTNYNPSLKSRVTISVDKSKNQFSLKLSSVTAADTAVYYCARDSSGFYGMDVWGQGTTVTVSS VL: not shown"
